± gives the standard deviation of the averaged measurements.
Test: total protein half-life in vivo (active degradation + dilution); higher = more stable protein
[1] = E. coli NCM3722 delta-clpP delta-lon delta-hslV, growth: N-lim chemostat, doubling time 6 h
[2] = E. coli NCM3722 delta-clpP, growth: N-lim chemostat, doubling time 6 h
[3] = E. coli NCM3722 delta-hslV, growth: N-lim chemostat, doubling time 6 h
[4] = E. coli NCM3722 delta-lon, growth: N-lim chemostat, doubling time 6 h
[5] = E. coli NCM3722 delta-smpB, growth: N-lim chemostat, doubling time 6 h
[6] = wild type E. coli NCM3722, growth: C-lim chemostat, doubling time 3 h
[7] = wild type E. coli NCM3722, growth: C-lim chemostat, doubling time 6 h
[8] = wild type E. coli NCM3722, growth: C-lim chemostat, doubling time 12 h
[9] = wild type E. coli NCM3722, growth: N-lim chemostat, doubling time 6 h
[10] = wild type E. coli NCM3722, growth: N-lim chemostat, doubling time 12 h
[11] = wild type E. coli NCM3722, growth: P-lim chemostat, doubling time 6 h
[12] = wild type E. coli NCM3722, growth: P-lim chemostat, doubling time 12 h

Sequence	total protein half-life in vivo [1]	total protein half-life in vivo [2]	total protein half-life in vivo [3]	total protein half-life in vivo [4]	total protein half-life in vivo [5]	total protein half-life in vivo [6]	total protein half-life in vivo [7]	total protein half-life in vivo [8]	total protein half-life in vivo [9]	total protein half-life in vivo [10]	total protein half-life in vivo [11]	total protein half-life in vivo [12]
MEKKHIYLFCSAGMSTSLLVSKMRAQAEKYEVPVIIEAFPETLAGEKGQNADVVLLGPQIAYMLPEIQRLLPNKPVEVIDSLLYGKVDGLGVLKAAVAAIKKAAAN	4.43 ± 0.066 h	3.28 ± 0.13 h	2.92 ± 0.14 h	4.05 ± 0.47 h	3.16 ± 0.091 h	2.72 ± 0.065 h	3.64 ± 0.58 h	6 ± 0.41 h	2.82 ± 0.2 h	4.37 ± 1 h	4.042 ± 0.031 h	7.9 ± 0.83 h
MSEKVVFSQLSRKFIDENDATPAEAQQVVYYSLAIGHHLGVIDCLEAALTCPWDEYLAWIATLEAGSEARRKMEGVPKYGEIVIDINHVPMLANAFDKARAAQTSQQQEWSTMLLSMLHDIHQENAIYLMVRRLRD [P0AEV7]	3.73 h	2.63 h		2.37 ± 0.25 h	1.7 h	2.34 h	3.73 h	6.99 h	2.24 ± 0.23 h	2.34 h	3.21 h	6.49 ± 0.1 h
MLTTLIYRSHIRDDEPVKKIEEMVSIANRRNMQSDVTGILLFNGSHFFQLLEGPEEQVKMIYRAICQDPRHYNIVELLCDYAPARRFGKAGMELFDLRLHERDDVLQAVFDKGTSKFQLTYDDRALQFFRTFVLATEQSTYFEIPAEDSWLFIADGSDKELDSCALSPTINDHFAFHPIVDPLSRRIIAFEAIVQKNEDSPSAIAVGQRKDGEIYTADLKSKALAFTMAHALELGDKMISINLLPMTLVNEPDAVSFLLNEIKANALVPEQIIVEFTESEVISRFDEFAEAIKSLKAAGISVAIDHFGAGFAGLLLLSRFQPDRIKISQELITNVHKSGPRQAIIQAIIKCCTSLEIQVSAMGVATPEEWMWLESAGIEMFQGDLFAKAKLNGIPSIAWPEKK	5.85 ± 0.18 h			1.79 ± 0.32 h			2.73 ± 2.2 h				0.443 h	
MNIFTEAAKLEEQNCPFAMAQIVDSRGSTPRHSAQMLVRADGSIVGTIGGGMVERKVIEESLQALQERKPRLFHGRMARNGADAVGSDCGGAMSVFISVHGMRPRLVLIGAGHVNRAIAQSAALLGFDIAVADIYRESLNPELFPPSTTLLHAESFGAAVEALDIRPDNFVLIATNNQDREALDKLIEQPIAWLGLLASRRKVQLFLRQLREKGVAEEHIARLHAPVGYNIGAETPQEIAISVLAEILQVKNNAPGGLMMKPSHPSGHQLVVIRGAGDIASGVALRLYHAGFKVIMLEVEKPTVIRCTVAFAQAVFDGEMTVEGVTARLATSSAEAMKLTERGFIPVMVDPACSLLDELKPLCVVDAILAKQNLGTRADMAPVTIALGPGFTAGKDCHAVIETNRGHWLGQVIYSGCAQENTGVPGNIMGHTTRRVIRAPAAGIMRSNVKLGDLVKEGDVIAWIGEHEIKAPLTGMVRGLLNDGLAVVGGFKIGDIDPRGETADFTSVSDKARAIGGGVLEALMMLMHQGVKATKEVLEVA	5.14 ± 0.82 h	1.65 ± 0.36 h								1.22 h		
MAEETIFSKIIRREIPSDIVYQDDLVTAFRDISPQAPTHILIIPNILIPTVNDVSAEHEQALGRMITVAAKIAEQEGIAEDGYRLIMNTNRHGGQEVYHIHMHLLGGRPLGPMLAHKGL [P0ACE7]		5.01 ± 0.59 h	4.88 ± 0.38 h		4.71 ± 0.36 h	3.32 ± 0.21 h	5.24 ± 0.32 h	8.75 ± 1.9 h	4.31 ± 0.051 h	7.64 ± 0.66 h	5.65 ± 0.32 h	12 ± 1.3 h
MIREAQRSELPAILELWLESTTWGHPFIKANYWRDCIPLVRDAYLANAQNWVWEEDGKLLGFVSIMEGRFLAAMFVAPKAVRRGIGKALMQYVQQRHPHLMLEVYQKNQPAINFYQAQGFHIVDCAWQDETQLPTWIMSWPVVQTL	5.19 h		2.72 h	3.34 ± 0.79 h		> 4 h	3.55 h	4.76 h	2.33 ± 0.12 h	3.08 ± 0.13 h	4.08 h	6.74 ± 0.19 h
MELKDYYAIMGVKPTDDLKTIKTAYRRLARKYHPDVSKEPDAEARFKEVAEAWEVLSDEQRRAEYDQMWQHRNDPQFNRQFHHGDGQSFNAEDFDDIFSSIFGQHARQSRQRPATRGHDIEIEVAVFLEETLTEHKRTISYNLPVYNAFGMIEQEIPKTLNVKIPAGVGNGQRIRLKGQGTPGENGGPNGDLWLVIHIAPHPLFDIVGQDLEIVVPVSPWEAALGAKVTVPTLKESILLTIPPGSQAGQRLRVKGKGLVSKKQTGDLYAVLKIVMPPKPDENTAALWQQLADAQSSFDPRKDWGKA	6.73 ± 1.4 h	5.61 ± 0.13 h	5.26 ± 0.1 h	6.28 ± 0.45 h	4.99 ± 0.26 h	3.32 ± 0.26 h	5.86 ± 1.2 h		4.87 ± 0.37 h	9.91 ± 2.2 h	5.76 ± 0.35 h	12.8 ± 0.6 h
MKRRLIIAASLFVFNLSSGFAAENIPFSPQPPEIHAGSWVLMDYTTGQILTAGNEHQQRNPASLTKLMTGYVVDRAIDSHRITPDDIVTVGRDAWAKDNPVFVGSSLMFLKEGDRVSVRDLSRGLIVDSGNDACVALADYIAGGQRQFVEMMNNYAEKLHLKDTHFETVHGLDAPGQHSSAYDLAVLSRAIIHGEPEFYHMYSEKSLTWNGITQQNRNGLLWDKTMNVDGLKTGHTSGAGFNLIASAVDGQRRLIAVVMGADSAKGREEEARKLLRWGQQNFTTVQILHRGKKVGTERIWYGDKENIDLGTEQEFWMVLPKAEIPHIKAKYTLDGKELTAPISAHQRVGEIELYDRDKQVAHWPLVTLESVGEGSMFSRLSDYFHHKA									7.4 h			
MSNNEFHQRRLSATPRGVGVMCNFFAQSAENATLKDVEGNEYIDFAAGIAVLNTGHRHPDLVAAVEQQLQQFTHTAYQIVPYESYVTLAEKINALAPVSGQAKTAFFTTGAEAVENAVKIARAHTGRPGVIAFSGGFHGRTYMTMALTGKVAPYKIGFGPFPGSVYHVPYPSDLHGISTQDSLDAIERLFKSDIEAKQVAAIIFEPVQGEGGFNVAPKELVAAIRRLCDEHGIVMIADEVQSGFARTGKLFAMDHYADKPDLMTMAKSLAGGMPLSGVVGNANIMDAPAPGGLGGTYAGNPLAVAAAHAVLNIIDKESLCERANQLGQRLKNTLIDAKESVPAIAAVRGLGSMIAVEFNDPQTGEPSAAIAQKIQQRALAQGLLLLTCGAYGNVIRFLYPLTIPDAQFDAAMKILQDALSD	3.77 ± 0.53 h		1 h		0.902 ± 0.068 h	2.883 ± 0.027 h	2.81 ± 0.47 h	4.33 ± 0.44 h	1.25 h	1.67 h	3.46 ± 0.35 h	5.88 ± 0.5 h
MAVIQDIIAALWQHDFAALADPHIVSVVYFVMFATLFLENGLLPASFLPGDSLLILAGALIAQGVMDFLPTIAILTAAASLGCWLSYIQGRWLGNTKTVKGWLAQLPAKYHQRATCMFDRHGLLALLAGRFLAFVRTLLPTMAGISGLPNRRFQFFNWLSGLLWVSVVTSFGYALSMIPFVKRHEDQVMTFLMILPIALLTAGLLGTLFVVIKKKYCNA [P0AA60]	4.46 h	4.55 h	3.26 h			2.23 h	4.04 ± 1.4 h	7.25 h			> 8 h	8.67 h
MRVDAIAKVTGRARYTDDYVMAGMCYAKYVRSPIAHGYAVSINDEQARSLPGVLAIFTWEDVPDIPFATAGHAWTLDENKRDTADRALLTRHVRHHGDAVAIVVARDELTAEKAAQLVSIEWQELPVITTPEAALAEDAAPIHNGGNLLKQSTMSTGNVQQTIDAADYQVQGHYQTPVIQHCHMESVTSLAWMEDDSRITIVSSTQIPHIVRRVVGQALDIPWSCVRVIKPFVGGGFGNKQDVLEEPMAAFLTSKLGGIPVKVSLSREECFLATRTRHAFTIDGQMGVNRDGTLKGYSLDVLSNTGAYASHGHSIASAGGNKVAYLYPRCAYAYSSKTCYTNLPSAGAMRGYGAPQVVFAVESMLDDAATALGIDPVEIRLRNAAREGDANPLTGKRIYSAGLPECLEKGRKIFEWEKRRAECQNQQGNLRRGVGVACFSYTSNTWPVGVEIAGARLLMNQDGTINVQSGATEIGQGADTVFSQMVAETVGVPVSDVRVISTQDTDVTPFDPGAFASRQSYVAAPALRSAALLLKEKIIAHAAVMLHQSAMNLTLIKGHIVLVERPEEPLMSLKDLAMDAFYHPERGGQLSAESSIKTTTNPPAFGCTFVDLTVDIALCKVTINRILNVHDSGHILNPLLAEGQVHGGMGMGIGWALFEEMIIDAKSGVVRNPNLLDYKMPTMPDLPQLESAFVEINEPQSAYGHKSLGEPPIIPVAAAIRNAVKMATGVAINTLPLTPKRLYEEFHLAGLI	5 h					1.88 ± 0.088 h	2.81 ± 0.68 h	3.56 ± 1.4 h				
MHTSELLKHIYDINLSYLLLAQRLIVQDKASAMFRLGINEEMATTLAALTLPQMVKLAETNQLVCHFRFDSHQTITQLTQDSRVDDLQQIHTGIMLSTRLLNDVNQPEEALRKKRA [P0A8S9]	6.51 ± 0.47 h					0.799 h						
